We go through four molecules from article doi:10.1101/2023.09.08.556779, “Molecular model of a bacterial flagellar motor in situ reveals a “parts-list” of protein adaptations to increase torque” (bioRxiv, 2024).

The target in data set [1] is PflC, recombinant (C. jejuni). Description: SEC + other: mass photometry; analytical SEC on ENrich SEC 650 in 1× PBS, calibrated with 15–600 kDa standards; mass photometry in PBS.
Data set [2] concerns the target PflB (C. jejuni 81–176 (endogenous in minicells)). Briefly: cryo-EM structure; in situ single particle analysis of C. jejuni ΔflhG ΔflaAB minicells, C17 symmetry; focused refinement of the periplasmic scaffold and first basal disk ring to 7.9 Å; AlphaFold models docked or flexibly fitted.
Data set [3] concerns the molecule itself. Description: SEC + other: mass photometry; analytical SEC on ENrich SEC 650 in 1× PBS, calibrated with 15–600 kDa standards; mass photometry in PBS.
Data set [4] deals with the molecule itself. Briefly: cryo-EM structure; in situ single particle analysis of C. jejuni ΔflhG ΔflaAB minicells, C17 symmetry; focused refinement of the periplasmic scaffold and first basal disk ring to 7.9 Å; AlphaFold models docked or flexibly fitted.

For PflC, recombinant (natural protein), in data set [1], the stoichiometry N (commonly the number of molecules, sites or subunits per partner or assembly) is 2. As to “PflB (from UniProt A0A6F9L7Y3 1-820) (natural protein)”, the stoichiometry N in data set [2] came out at 17.

B1: PflCN (Δ236–349), recombinant (domain or fragment)
chain: GIERPKFEDFLAGYERNKASMLNYEGMPAFALSENLLAVLKQPNTKLNKYVKYDPFLNLYLVRTDFSLIPTPMGDEEKLTRNDWVGIWDPNKPYIGHIKYLAQNIDEKDQLDFNSKIGLLGTPCCEMMGIALNNSSFIGNRYLKHFMKYNDVYWGDIGVDFVVRENKIYVNNVRKNPQFLINDQVISVDGLPANDLRKLNEKILFADRGSTLYFQVLRDNSGGDGKFQFFIRLTK
For the molecule B1, in data set [3], the “stoichiometry N” value came out at 2.

B2: FliL (natural protein)
chain: MDEELENEETKKKKGGSLVIIIVILLFVLLLSIMGVIAWLISSSSSDESEVKEAPKEEAKADKPKVSAPTQRGSDFANIGPMYPLDPFTLNLLSDSGSRYVKCTIELEQNSELLKPELDKKVPVIRDIIIRTLTAKTFEEVSTQKGKERLKDELVGKINEILTDGFIKNVYFTDFVVS
notes: FliL of Campylobacter jejuni 81–176; an arc of four in each asymmetric unit of the proximal disk; source: endogenous, C. jejuni 81–176 (minicells imaged in situ; lysate of formaldehyde-crosslinked cells)
Take B2: the “stoichiometry N” value in data set [4] is 4.
